Article PMC2755859
pKd: −log10 of the molar value.

Assays:
[1] = molecular target: pICln (UniProt P54105); assay: AUC
[2] = molecular target: PRMT5cat (human) (UniProt O14744); assay: AUC

Chain of pICln (P54105 whole entry): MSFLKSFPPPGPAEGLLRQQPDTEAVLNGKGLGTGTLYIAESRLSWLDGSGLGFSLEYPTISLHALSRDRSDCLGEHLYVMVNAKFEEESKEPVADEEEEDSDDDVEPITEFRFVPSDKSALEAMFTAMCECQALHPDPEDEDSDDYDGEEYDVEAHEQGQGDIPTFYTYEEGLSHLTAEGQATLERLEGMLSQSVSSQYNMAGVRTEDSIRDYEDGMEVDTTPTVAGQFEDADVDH
Chain of SmD3 (P62318 whole entry): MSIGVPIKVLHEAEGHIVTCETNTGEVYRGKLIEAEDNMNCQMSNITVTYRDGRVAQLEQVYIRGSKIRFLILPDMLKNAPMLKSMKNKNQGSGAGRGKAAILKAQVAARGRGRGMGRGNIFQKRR

| stoichiometry N [1] | pKd [2] | stoichiometry N [2] | Substance |
| --- | --- | --- | --- |
| 1 | – | – | SmD3 (from UniProt P62318 1-126) (natural protein) |
| – | 4.70 | 2 | PRMT5cat (from UniProt O14744 296-637) (domain or fragment) |
